Test results: PMC5458344

How the values were obtained:
[1] = biological target: GST-lamin A (amino acids 356–665, containing nesprin-1/2 binding domain) (UniProt P02545); assay: reverse GST pull-down with western blot densitometry; settings: lysates of U2OS cells transfected with GFP-nesprin-1α2 WT or mutant; three independent experiments, mean ± SEM; parent: est. 1.0; read off a plot
[2] = biological target: GST-emerin (amino acids 1–176, lacking the TM domain) (UniProt P50402); assay: as above; settings: lysates of U2OS cells transfected with GFP-nesprin-1α2 WT or mutant; three independent experiments, mean ± SEM; parent: est. 1.0; read off a plot
Myc-SUN2 (full length) = Myc-SUN2 (full length) (UniProt Q9UH99); assay: GST pull-down with western blot densitometry; settings: lysate of U2OS cells transfected with Myc-SUN2 (full length); three independent experiments, mean ± SEM; parent: est. 1.0; read off a plot
Sequence of UniProt Q9UH99 (Q9UH99 whole entry): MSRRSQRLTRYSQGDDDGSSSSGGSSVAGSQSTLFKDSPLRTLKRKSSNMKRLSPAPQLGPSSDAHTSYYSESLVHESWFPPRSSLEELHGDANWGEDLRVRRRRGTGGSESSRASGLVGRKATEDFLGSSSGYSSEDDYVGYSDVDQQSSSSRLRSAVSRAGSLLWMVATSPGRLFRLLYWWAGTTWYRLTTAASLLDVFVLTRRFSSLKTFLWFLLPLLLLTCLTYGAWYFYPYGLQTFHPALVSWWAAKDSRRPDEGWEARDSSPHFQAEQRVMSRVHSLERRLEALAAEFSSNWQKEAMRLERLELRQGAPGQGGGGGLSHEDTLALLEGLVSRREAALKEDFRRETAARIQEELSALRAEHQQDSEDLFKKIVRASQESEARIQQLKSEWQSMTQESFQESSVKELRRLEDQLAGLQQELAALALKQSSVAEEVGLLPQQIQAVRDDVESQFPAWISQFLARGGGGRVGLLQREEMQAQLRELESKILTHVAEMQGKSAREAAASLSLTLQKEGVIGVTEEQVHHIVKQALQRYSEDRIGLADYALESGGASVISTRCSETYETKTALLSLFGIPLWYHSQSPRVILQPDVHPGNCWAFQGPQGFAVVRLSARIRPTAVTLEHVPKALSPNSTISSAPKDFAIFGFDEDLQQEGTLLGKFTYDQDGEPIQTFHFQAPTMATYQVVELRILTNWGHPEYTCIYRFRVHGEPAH

emerin (endogenous) = emerin (endogenous) (UniProt P50402); assay: GST pull-down with western blot densitometry; settings: U2OS cell lysate; three independent experiments, mean ± SEM; parent: est. 1.0; read off a plot
[3] = biological target: lamin A/C (endogenous, U2OS lysate; lamin A and lamin C bands quantified together); assay: GST pull-down with western blot densitometry; settings: U2OS cell lysate; three independent experiments, mean ± SEM; parent: est. 1.0; read off a plot

Sequence of UniProt P02545 (P02545 356-664): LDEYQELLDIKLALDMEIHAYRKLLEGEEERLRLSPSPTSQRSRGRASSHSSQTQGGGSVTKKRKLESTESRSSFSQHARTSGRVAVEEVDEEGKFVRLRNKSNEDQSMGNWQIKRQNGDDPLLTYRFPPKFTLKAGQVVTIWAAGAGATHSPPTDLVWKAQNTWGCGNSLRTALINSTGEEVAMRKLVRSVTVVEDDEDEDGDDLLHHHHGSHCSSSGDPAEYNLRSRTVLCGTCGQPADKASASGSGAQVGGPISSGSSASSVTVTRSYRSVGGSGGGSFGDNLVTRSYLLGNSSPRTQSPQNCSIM

| ratio to parent [1] | ratio to parent [2] | ratio to parent (Myc-SUN2 (full length)) | ratio to parent (emerin (endogenous)) | ratio to parent [3] | Substance |
| --- | --- | --- | --- | --- | --- |
| 0.31 | 1.1 |  |  |  | GFP-tagged nesprin-1α2 WT N8406K |
|  |  | 0.25 | 1 | 0.18 | GST-tagged WT nesprin-1α2 SR1-6 (lacking KASH domain) R8272Q |
|  |  | 0.19 | 0.87 | 0.12 | GST-tagged WT nesprin-1α2 SR1-6 (lacking KASH domain) S8381C |

Second part, the substance before the results:

| Substance | ratio to parent [1] | ratio to parent [2] | ratio to parent (Myc-SUN2 (full length)) | ratio to parent (emerin (endogenous)) | ratio to parent [3] |
| --- | --- | --- | --- | --- | --- |
| GFP-tagged nesprin-1α2 WT R8272Q | 0.33 | 1.1 |  |  |  |
| GFP-tagged nesprin-1α2 WT S8381C | 0.17 | 0.93 |  |  |  |
| GST-tagged WT nesprin-1α2 SR1-6 (lacking KASH domain) N8406K |  |  | 0.15 | 1.2 | 0.17 |
